Measurements taken from patent publication CN115819579A (UNIV ZHEJIANG, dated 2023).

Tests used:
IL-17A重组蛋白 = biological target: T1, IL-17A重组蛋白 (UniProt Q16552 24-155, limits assumed); assay: BLI (Fortebio)
T1 construct: also called 重组蛋白IL-17A; IL-17A抗原
T1 sequence (looked up): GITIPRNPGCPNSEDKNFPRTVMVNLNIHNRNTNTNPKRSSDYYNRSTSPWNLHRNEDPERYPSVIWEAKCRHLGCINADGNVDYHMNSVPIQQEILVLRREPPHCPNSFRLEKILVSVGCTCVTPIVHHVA

牛血清白蛋白(BSA) = biological target: T2, 牛血清白蛋白(BSA) (bovine, UniProt P02769 25-607); assay: ELISA, BSA coated at 1 μg/ml, anti-His detection, OD450
T2 construct: Control antigen of the specificity ELISA
T2 sequence (P02769 25-607 limits assumed): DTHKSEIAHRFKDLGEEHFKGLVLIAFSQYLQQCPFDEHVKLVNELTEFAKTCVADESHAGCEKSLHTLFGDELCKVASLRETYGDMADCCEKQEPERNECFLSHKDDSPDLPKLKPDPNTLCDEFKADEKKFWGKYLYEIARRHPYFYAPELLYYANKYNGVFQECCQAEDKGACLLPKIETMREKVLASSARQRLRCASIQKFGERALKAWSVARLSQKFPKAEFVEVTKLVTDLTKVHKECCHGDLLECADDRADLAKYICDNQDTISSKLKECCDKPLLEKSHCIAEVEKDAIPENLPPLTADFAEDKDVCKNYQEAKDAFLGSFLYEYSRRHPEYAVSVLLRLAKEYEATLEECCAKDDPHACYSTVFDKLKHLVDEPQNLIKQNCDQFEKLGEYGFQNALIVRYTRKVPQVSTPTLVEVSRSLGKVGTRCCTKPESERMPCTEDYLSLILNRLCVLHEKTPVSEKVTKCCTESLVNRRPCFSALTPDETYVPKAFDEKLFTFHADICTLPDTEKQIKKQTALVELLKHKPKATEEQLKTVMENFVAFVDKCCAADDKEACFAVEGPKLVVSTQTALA

B1: 全人源抗IL-17A单链抗体No.34 (scFv)
scFv: MQVQLVQSGAEVKPPGASVKVSCKASGYTFTTHKIQWVRQAPGQRLEWMGWINTDKGDTKYSQKFQGRVTITSDTSASTAFMDLSSLRSEDTAVYYCARDGEGYAPFGMDVWGQGTTVTVSSGGGGSGGGGSGGGGSDIRLTQSPPSLSASVGDRVTITCRASQTIGSHLNWYQQKPGKAPKLLIYAASSLQSGVPSRFSGSGSGTDFTLTISSLQPEDFATYYCQQSHSGLTFGGGTKVDIK
notes: also called anti-IL-17A scFv No.34; Anti-IL-17A scFv No.34
Kd (IL-17A重组蛋白): 110 nM | binding result (牛血清白蛋白(BSA)): no binding (tested: 0.1μg/ml)
